Literature values in PMC3985519.

Biological target: von Willebrand factor (Homo sapiens) (UniProt P04275)

Substance: Factor VIII (from UniProt P00451)
- Kd: 0.5 nM
